Results from patent US20020103152.

Tested on: Sleeping Beauty transposase (SB) (synthetic construct (salmonid Tc1-like, reconstructed)?)
Assay: cell_activity
Details: mouse liver, pRSV-βgeo without terminal repeats; 2-4% with repeats

## phAAT / pRSV-βgeo plasmids lacking terminal repeats
  activity (% of hepatocytes): < 0.01
